The series in a line: Passive microrheology (multiple particle tracking). In kind it is physicochemical. The following applies: 4 °C. The protocol: Microrheology. Protein was concentrated to 2 mM, as measured by BCA assay, and immediately aliquoted 27.7 μL into a 200 μL PCR tube. 1% v/v (or 0.3 μL) of […] red polystyrene fluorometric beads (FluoSpheres) were then added to the sample. A glass capillary tube was then loaded with sample by capillary action and sealed to prevent evaporation while being affixed to a microscopy slide using two-component fast-curing epoxy (JB Weld). Samples were then imaged at 0 h as a starting measurement and then every 12 h using a Leica DMI4000b inverted microscope equipped with a Leica DFC310 FX 1.4 megapixel camera at 40× magnification with 2×2 binning. […] Each image series was recorded for a total of 300 frames with a lag time (i) of 0.037 s between each frame. Relaxation exponents i.e. the logarithmic slopes of particle mean-squared displacements (MSDs) with respect to lag time as determined by multiple particle tracking (MPT) analysis were used to determine when equilibration of the hydrogel was complete and measurements were no longer recorded (60 h in this case). […]
Gelation kinetics of the hydrogels were assessed using passive microrheology (FIG. 61a-e). Time to gelation was measured immediately after concentration to 2 mM at 4° C. by incubating with 1 μm fluorescent tracer beads added to the protein in solution state at a final concentration of 1% (v/v). […]

The text below walks through data of patent publication US20240115742A1, “FLUORINATED FIBERS FOR MULTIMODAL 1H AND 19F MRI, ULTRASOUND, FLUORESCENCE DETECTION AND CONFORMATIONAL AND TEMPERATURE DETECTION BY 19F MRS” (New York University, priority 2022, published 2024).

Take “Q5: Q hydrogel variant from Rosetta Monte Carlo search, SEQ ID NO: 14 (MRGSHHHHHHGSIEGRVKEITFIKKTIEQIAEEMKEINKAIHDIRHALENISKK) [Protein Q5]”: the “time to complete gelation (sol-gel transition)” value was at most 24 h.
